Source: the supplement of paper PMC7877785
± gives the uncertainty stated by the source.

Assay: self-splicing fitness, log relative to wild type (ln ratio); higher = more splicing; Tetrahymena group I intron in knt gene, E. coli kanamycin selection, DiMSum; sequences stand for … in CUCUCU…GGAGGGAAAAGUUAUCAGGCAUGCACCUGGUAGCUAGUCUUUAAACCAAUAGAUUGCAUCGGUUUAAAAGGCAAGACCGUCAAAUUGCGGGAAAGGGGUCAACAGCCGUUCAGUACCAAGUCUCAGGGGAAACUUUGAGAUGGCCUUGCAAAGGGUAUGGUAAUAAGCUGACGGACAUGGUCCUAACCACGCAGCCAAGUCCUAAGUCAACAGAUCUUCUGUUGAUAUGGAUGCAGUUCACAGACUAAAUGUCGGUCGGGGAAGAUGUAUUCUUCUCAUAAGAUAUAGUCGGACCUCUCCUUAAUGGGAGCUAGCGGAUGAAGUGAUGCAACACUGGAGCCGCUGGGAACUAAUUUGUAUGCGAAAGUAUAUUGAUUAGUUUUGGAGUACUCGUGGUCG
Method in brief: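 Pooled colonies went to amplicon sequencing on an Illumina HiSeq 2500 after six replicate transformations. The plates were LB agar with 100 μg/mL carbenicillin, 50 μM IPTG and 0.2% rhamnose, with or without 25 μg/mL kanamycin, incubated overnight at 37°C or 30°C. The E. coli BL21(DE3) library had all eight P1ex-region intron nucleotides randomised, the intron placed in the knt kanamycin-resistance gene on pET-22b(+). DiMSum fitness is the error-weighted combination of replicate fold changes, kanamycin against none, normalised to wild type.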

Sequence | self-splicing fitness (ln) (30 °C) | self-splicing fitness (ln) (37 °C)
AGAUAGCAAUAUUACGGCGA | -0.537 ± 0.14 | -0.0635 ± 0.14
CACGAGCAAUAUUACGUGUU | -2.98 ± 0.1 | -2.26 ± 0.15
UGACAGCAAUAUUACGUUCC | -1.55 ± 0.1 | -0.947 ± 0.14
ACGUAGCAAUAUUACGGCGU | -3.88 ± 0.14 | -2.48 ± 0.15
ACUUAGCAAUAUUACGUAGA | -3.26 ± 0.13 | -1.59 ± 0.11
AACCAGCAAUAUUACGUUUU | -2.11 ± 0.057 | -1.27 ± 0.065
CUGCAGCAAUAUUACGGUCG | -0.487 ± 0.077 | 0.0459 ± 0.09
UCAUAGCAAUAUUACGGUAU | – | -2.43 ± 0.28
CCCAAGCAAUAUUACGACAA | -3.14 ± 0.17 | -3.12 ± 0.22
ACGAAGCAAUAUUACGACAA | -0.701 ± 0.2 | -0.985 ± 0.19
GAUGAGCAAUAUUACGUCAC | -3.62 ± 0.4 | -2.47 ± 0.26
UUGAAGCAAUAUUACGGCCA | 0.0822 ± 0.12 | -0.046 ± 0.13
CAGUAGCAAUAUUACGAUUG | -1.73 ± 0.083 | -0.648 ± 0.11
CGGAAGCAAUAUUACGAGUC | -2.83 ± 0.22 | -2.39 ± 0.31
AUGGAGCAAUAUUACGCGGG | -2.84 ± 0.45 | –
CCUUAGCAAUAUUACGCAUA | -3.22 ± 0.46 | -2.24 ± 0.37
CAGAAGCAAUAUUACGAGCG | -0.175 ± 0.068 | 0.538 ± 0.086

Sequence | self-splicing fitness (ln) (30 °C) | self-splicing fitness (ln) (37 °C)
ACGUAGCAAUAUUACGUAUA | -3.36 ± 0.33 | -2.1 ± 0.2
CUGCAGCAAUAUUACGACUG | -2.56 ± 0.16 | -1.74 ± 0.2
GGAUAGCAAUAUUACGCAGC | -3.14 ± 0.25 | -1.59 ± 0.2
UCUGAGCAAUAUUACGCUAG | -1.31 ± 0.17 | -1.43 ± 0.19
CGCGAGCAAUAUUACGUCCU | – | -1.69 ± 0.48
UAUAAGCAAUAUUACGCUCC | -1.29 ± 0.24 | -1.02 ± 0.28
CGUGAGCAAUAUUACGAGAU | -3.4 ± 0.26 | -1.57 ± 0.24
UAGCAGCAAUAUUACGAUGA | -0.884 ± 0.069 | -0.42 ± 0.066
UUUAAGCAAUAUUACGGGGC | -2.77 ± 0.3 | -3.55 ± 0.3
CAUUAGCAAUAUUACGUGGG | -3.46 ± 0.17 | -2.76 ± 0.21
GGGAAGCAAUAUUACGAAUA | – | -1 ± 0.2
GGUCAGCAAUAUUACGCUUA | 0.0476 ± 0.059 | 0.296 ± 0.078
AAAUAGCAAUAUUACGUAUU | -2.56 ± 0.11 | -0.844 ± 0.094
GUCUAGCAAUAUUACGUCUC | 0.162 ± 0.096 | -0.048 ± 0.096
GACCAGCAAUAUUACGCUAU | -1.28 ± 0.074 | 0.126 ± 0.082
GACGAGCAAUAUUACGAAUU | -3.49 ± 0.14 | -2.55 ± 0.14
AUGCAGCAAUAUUACGGGGC | -4.09 ± 0.23 | -2.54 ± 0.21
